According to US20060105414:

B1: IKKβ, recombinant, chromatographically pure, produced in Sf9 cells using baculoviruses (protein)
chain: MSWSPSLTTQTCGAWEMKERLGTGGFGNVIRWHNQETGEQIAIKQCRQELSPRNRERWCLEIQIMRRLTHPNVVAARDVPEGMQNLAPNDLPLLAMEYCQGGDLRKYLNQFENCCGLREGAILTLLSDIASALRYLHENRIIHRDLKPENIVLQQGEQRLIHKIIDLGYAKELDQGSLCTSFVGTLQYLAPELLEQQKYTVTVDYWSFGTLAFECITGFRPFLPNWQPVQWHSKVRQKSEVDIVVSEDLNGTVKFSSSLPYPNNLNSVLAERLEKWLQLMLMWHPRQRGTDPTYGPNGCFKALDDILNLKLVHILNMVTGTIHTYPVTEDESLQSLKARIQQDTGIPEEDQELLQEAGLALIPDKPATQCISDGKLNEGHTLDMDLVFLFDNSKITYETQISPRPQPESVSCILQEPKRNLAFFQLRKVWGQVWHSIQTLKEDCNRLQQGQRAAMMNLLRNNSCLSKMKNSMASMSQQLKAKLDFFKTSIQIDLEKYSEQTEFGITSDKLLLAWREMEQAVELCGRENEVKLLVERMMALQTDIVDLQRSPMGRKQGGTLDDLEEQARELYRRLREKPRDQRTEGDSQEMVRLLLQAIQSFEKKVRVIYTQLSKTVVCKQKALELLPKVEEVVSLMNEDEKTVVRLQEKRQKELWNLLKIACSKVRGPVSGSPDSMNASRLSQPGQLMSQPSTASNSLPEPAKKSEELVAEAHNLCTLLENAIQDTVREQDQSFTALDWSWLQTEEEEHSCLEQAS
B2: IκB kinase α (IKKα), recombinant, chromatographically pure, produced in Sf9 cells using baculoviruses (protein)
chain: MERPPGLRPGAGGPWEMRERLGTGGFGNVCLYQHRELDLKIAIKSCRLELSTKNRERWCHEIQIMKKLNHANVVKACDVPEELNILIHDVPLLAMEYCSGGDLRKLLNKPENCCGLKESQILSLLSDIGSGIRYLHENKIIHRDLKPENIVLQDVGGKIIHKIIDLGYAKDVDQGSLCTSFVGTLQYLAPELFENKPYTATVDYWSFGTMVFECIAGYRPFLHHLQPFTWHEKIKKKDPKCIFACEEMSGEVRFSSHLPQPNSLCSLIVEPMENWLQLMLNWDPQQRGGPVDLTLKQPRCFVLMDHILNLKIVHILNMTSAKIISFLLPPDESLHSLQSRIERETGINTGSQELLSETGISLDPRKPASQCVLDGVRGCDSYMVYLFDKSKTVYEGPFASRSLSDCVNYIVQDSKIQLPIIQLRKVWAEAVHYVSGLKEDYSRLFQGQRAAMLSLLRYNANLTKMKNTLISASQQLKAKLEFFHKSIQLDLERYSEQMTYGISSEKMLKAWKEMEEKAIHYAEVGVIGYLEDQIMSLHAEIMELQKSPYGRRQGDLMESLEQRAIDLYKQLKHRPSDHSYSDSTEMVKIIVHTVQSQDRVLKELFGHLSKLLGCKQKIIDLLPKVEVALSNIKEADNTVMFMQGKRQKEIWHLLKIACTQSSARSLVGSSLEGAVTPQTSAWLPPTSAEHDHSLSCVVTPQDGETSAQMIEENLNCLGHLSTIIHEANEEQGNSMMNLDWSWLTE
B3: NF-κB inducing kinase (NIK), recombinant, immunopurified, produced in Sf9 cells using baculoviruses (protein)
chain: MAVMEMACPGAPGSAVGQQKELPKAKEKTPPLGKKQSSVYKLEAVEKSPVFCGKWEILNDVITKGTAKEGSEAGPAAISIIAQAECENSQEFSPTFSERIFIAGSKQYSQSESLDQIPNNVAHATEGKMARVCWKGKRRSKARKKRKKKSSKSLAHAGVALAKPLPRTPEQESCTIPVQEDESPLGAPYVRNTPQFTKPLKEPGLGQLCFKQLGEGLRPALPRSELHKLISPLQCLNHVWKLHHPQDGGPLPLPTHPFPYSRLPHPFPFHPLQPWKPHPLESFLGKLACVDSQKPLPDPHLSKLACVDSPKPLPGPHLEPSCLSRGAHEKFSVEEYLVHALQGSVSSGQAHSLTSLAKTWAARGSRSREPSPKTEDNEGVLLTEKLKPVDYEYREEVHWATHQLRLGRGSFGEVHRMEDKQTGFQCAVKKVRLEVFRAEELMACAGLTSPRIVPLYGAVREGPWVNIFMELLEGGSLGQLVKEQGCLPEDRALYYLGQALEGLEYLHSRRILHGDVKADNVLLSSDGSHAALCDFGHAVCLQPDGLGKSLLTGDYIPGTETHMAPEVVLGRSCDAKVDVWSSCCMMLHMLNGCHPWTQFFRGPLCLKIASEPPPVREIPPSCAPLTAQAIQEGLRKEPIHRVSAAELGGKVNRALQQVGGLKSPWRGEYKEPRHPPPNQANYHQTLHAQPRELSPRAPGPRPAEETTGRAPKLQPPLPPEPPEPNKSPPLTLSKEESGMWEPLPLSSLEPAPARNPSSPERKATVPEQELQQLEIELFLNSLSQPFSLEEQEQILSCLSIDSLSLSDDSEKNPSKASQSSRDTLSSGVHSWSSQAEARSSSWNMVLARGRPTDTPSYFNGVKVQIQSLNGEHLHIREFHRVKVGDIATGISSQIPAAAFSLVTKDGQPVRYDMEVPDSGIDLQCTLAPDGSFAWSWRVKHGQLENRP

How the values were obtained:
[1] = molecular target: T1, GST-IκBα (1-54), regulatory domain of IκBα, P25963
T1 chain: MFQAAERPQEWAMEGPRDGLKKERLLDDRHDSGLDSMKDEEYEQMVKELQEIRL

[2] = molecular target: T2, GST-NF-κB2 (754-900) (p100C), C terminal regulatory domain of NF-κB2, Q00653
T2 chain: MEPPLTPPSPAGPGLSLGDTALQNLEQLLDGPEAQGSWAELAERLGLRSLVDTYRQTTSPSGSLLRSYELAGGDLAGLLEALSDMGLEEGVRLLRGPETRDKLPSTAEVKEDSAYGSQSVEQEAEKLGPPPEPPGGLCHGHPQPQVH

Protein | phosphorylation of GST-IκBα (1-54) in an in vitro kinase assay [1] | phosphorylation of GST-NF-κB2 (754-900) (p100C) in an in vitro kinase assay [2] | phosphorylation of the NF-κB2 C-terminal regulatory domain in vitro [2]
B1 | the regulatory domain of Iκ Bα was phosphorylated more efficiently by IKKβ than by IKKα | – | –
B2 | the regulatory domain of Iκ Bα was phosphorylated more efficiently by IKKβ than by IKKα | the C terminal regulatory domain of NF-κB2 was phosphorylated most efficiently by IKKα | IKK is a more effective NF-B2 C-terminal kinase than NIK
B3 | not at all by NIK | – | both NIK and IKKα phosphorylate the C-terminal regulatory domain of NF-κB2
